In patent US20040072184A1:

Assays:
PKB-sub peptide = biological target: T1, PKB-sub peptide; test: cell-based or functional assay
T1 sequence (peptide): CKRPRAASFAE

CapK peptide = biological target: T2, CapK peptide; test: cell-based or functional assay
T2 sequence (peptide): CGRTGRRNSI

B1: GST-SGK2 fusion protein (enzyme, not shown: a dimerising Fc or GST)
chain: MNSSPAGTPSPQPSRANGNINLGPSANPNAQPTDFDFLKVIGKGNYGKVLLAKRKSDGAFYAVKVLQKKSILKKKEQSHIMAERSVLLKNVRHPFLVGLRYSFQTPEKLYFVLDYVNGGELFFHLQRERRFLEPRARFYAAEVASAIGYLHSLNIIYRDLKPENILLDCQGHVVLTDFGLCKEGVEPEDTTSTFCGTPEYLAPEVLRKEPYDRAVDWWCLGAVLYEMLHGLPPFYSQDVSQMYENILHQPLQIPGGRTVAACDLLQSLLHKDQRQRLGSKADFLEIKNHVFFSPINWDDLYHKRLTPPFNPNVTGPADLKHFDPEFTQEAVSKSIGCTPDTVASSSGASSAFLGFSYAPEDDDILDC
A kinase activity, PKB sub (CCPM1); GST-SGK2 from Hi5 cells treated with Calyculin A (PKB-sub peptide) of 92500 CCPM1, a kinase activity, PKB sub (CCPM1); GST-SGK2 from Hi5 cells treated with Microcysteine (PKB-sub peptide) of 217 CCPM1 and a kinase activity, PKB sub (CCPM1); GST-SGK2 from Hi5 cells treated with Okadaic Acid (PKB-sub peptide) of 132000 CCPM1 were found for B1 in this work. For the same binder, the kinase activity, PKB sub (CCPM1); GST-SGK2 from untreated Hi5 cells (PKB-sub peptide) was 979 CCPM1, the kinase activity, CapK sub (CCPM1); GST-SGK2 from Hi5 cells treated with Calyculin A (CapK peptide) was 59300 CCPM1 and the kinase activity, CapK sub (CCPM1); GST-SGK2 from Hi5 cells treated with Microcysteine (CapK peptide) was 330 CCPM1. It also gave a kinase activity, CapK sub (CCPM1); GST-SGK2 from Hi5 cells treated with Okadaic Acid (CapK peptide) of 162000 CCPM1 and a kinase activity, CapK sub (CCPM1); GST-SGK2 from untreated Hi5 cells (CapK peptide) of 1080 CCPM1.
